The target of this experiment is T1, soluble oligomeric streptavidin mutein (oligomer of Strep-tactin, n≥3, crosslinked with sulfo-SMCC and … (Streptomyces avidinii, UniProt P22629 38-163, chemically crosslinked with sulfo-SMCC and iminothiolan)).
T1 construct: Oligomers of homo-tetramers separated from monomeric and dimeric mutein by size exclusion chromatography; no single molecular weight; also called soluble oligomeric Strep-tactin; oligomeric mutein streptavidin
The experiment is described as follows: mixing of peptide-tagged Fab with soluble oligomeric streptavidin mutein at room temperature.

B1: αCD28 Fab fragment derived from the monoclonal anti-human CD28 antibody CD28.3, heavy chain carboxy-terminally fused to the Twin-Strep-tag (monomeric) (Fab)
heavy (part 1 of 2): LQQSGAELVKPGASVRLSCKASGYTFTEYIIHWIKLRSGQGLEWIGWFYPGSNDIQYNAKFKGKATLTADKSSSTVYMELTGLTSEDSAVYFCARRDDFSGYDALPYWGQGTMVTV
heavy (part 2 of 2): not shown
light: DIQMTQSPASLSVSVGETVTITCRTNENIYSNLAWYQQKQGKSPQLLIYAATHLVEGVPSRFSGSGSGTQYSLKITSLQSEDFGNYYCQHFWGTPCTFGGGTKLEIKR
notes: Recombinantly produced in E. coli; also called anti-CD28 Fab fragment; αCD28 Fab fragment of the antibody 28.3; not shown: human kappa light chain constant domain
Regarding B1, the binding result is listed as “binds”.

The record behind these values is patent US20240191188A1 (JUNO THERAPEUTICS, published 2024).
